± gives the uncertainty stated by the source.
Experiment: protein stability index of a GFP-peptide fusion (yeast GPS) (PSI 1-4); higher = more stable; sorted into four equal gates, so the index is relative within each strain
Conditions: san1∆
Outline: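 Tiled 17-residue peptides from yeast proteins were fused downstream of GFP on a plasmid that also expresses Cherry, and the pooled library was carried in yeast. Mid-log cultures grown in leucine-free medium were sorted into four equal gates by GFP/Cherry fluorescence ratio. Plasmids from each gate were PCR-amplified and Illumina-sequenced, and reads were assigned to strains by barcodes. Each peptide's protein stability index is the sum, over gates, of the gate's read frequency multiplied by its gate number.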

| Sequence | protein stability index |
| --- | --- |
| DLTRVYKAISAQADKQD [FAS2] | 1.74 ± 0.1 |

Same assay, conditions: ubr1∆

| Sequence | protein stability index |
| --- | --- |
| ATAEKLPNIYPSTRCKL [RPT2] | 2 ± 0.1 |
| ATEKKSSSPLAMSETLS [PRE8] | 2.39 ± 0.055 |
| ATEVTPQEPKHIQEEEE [RPC19] | 3.37 ± 0.079 |
| ATFTSIELTSYESIATY [RPN7] | 1.77 ± 0.025 |
| ATGKKSRGINKGHKFNN [RPL15A] | 2.17 ± 0.13 |
| ATIRETYEIICDQTKSV [RRP43] | 2.98 ± 0.045 |
| ATKEGVVLGVEKRATSP [PUP2] | 3.19 ± 0.053 |
| ATLQSNEPTQKDEEETE [DSN1] | 2.79 ± 0.1 |
| ATPIPEEVQQAQTEIKL [RPS5] | 3.05 ± 0.11 |
| ATSTNPAKSASARGSYL [RPL17A] | 2.66 ± 0.029 |
| AVAGLTADAEILINTAR [PRE9] | 3.09 ± 0.078 |
| AVEKTLALGCHFQDQKN [POP7] | 2.78 ± 0.096 |
| AVFIVPKILIREHERVI [SWP82] | 2.1 ± 0.19 |
| AVGNLGNAIEVTEDGSI [RPL22B] | 1.27 ± 0.05 |
| AVSAASVVSMSNDVLKP [SIR2] | 2.75 ± 0.04 |
| AVSIETALEHKVVNGNS [FAS2] | 1.4 ± 0.051 |
| AVYETLISRMIFIATQL [BRR2] | 1.62 ± 0.041 |
| AYFLIIVPVISTIENVL [COB] | 2.12 ± 0.07 |
| AYNKKSTISAREIQTAV [HTB1] | 2.92 ± 0.13 |
| AYVAIEQVKDDGTSTEK [RPN8] | 2.64 ± 0.085 |
| CAERVKIQQQQPGYADL [QCR6] | 3.09 ± 0.27 |
| CDDESGDNEYITLRTSG [MCD1] | 3.47 ± 0.061 |
| CDEHMGLSLAGLAPDAR [PRE5] | 2.76 ± 0.093 |
| CEIHPSMILGVAASIIP [RPB2] | 1.35 ± 0.16 |
| CESCSTILCTPTGGKAK [RPS27A] | 2.18 ± 0.037 |
| CGDSIICNTLNIAKDLK [SMC1] | 2.12 ± 0.075 |
| CGLMTVIAKLNHNQFEC [RPB2] | 1.7 ± 0.15 |

| Sequence | protein stability index |
| --- | --- |
| CIFGDAFDVDRAKSCGV [RPL1A] | 2.59 ± 0.081 |
| CIIFMDEVDAIGGRRFS [RPT4] | 2.43 ± 0.099 |
| CKKKEMSQYQSTMKENK [YIL149C/MLP2] | 2.55 ± 0.071 |
| CLGIKDEEMLTSCTIPK [GAL11] | 3.14 ± 0.059 |
| CLLSIPKSTKGKILTIK [YML103C/NUP188] | 1.97 ± 0.054 |
| CNDEDKDLETLYNKIWT [ECM29] | 2.88 ± 0.037 |
| CNERVPLSVATELMNRS [SRP72] | 2.19 ± 0.036 |
| CPYCYKKRREYFPEGYN [SIR2] | 2.75 ± 0.069 |
| CQILDGELDVLQIESVT [PRP8] | 2.86 ± 0.059 |
| CRNINRKHRNAQFAGRA [DIS3] | 2.92 ± 0.086 |
| CRVDFKNPHDIIEGINA [RPL12A] | 2.43 ± 0.05 |
| CSKSIPKDKAIKRMAIR [RPS26A] | 2.85 ± 0.046 |
| CSNNKNSIKNVPPILII [SSN2] | 1.5 ± 0.085 |
| CSSATVPKHMLDKLDEI [AAR2] | 3.2 ± 0.067 |
| CVHMVYEYAEHDLLQII [SSN3] | 2.48 ± 0.08 |
| CYAPRPSAGPHKLRESL [RPS4A] | 3.07 ± 0.072 |
| CYPQFAERDSQGGFYKQ [UBP6] | 3.21 ± 0.044 |
| DAAAEEEKEEEAAEESD [RPP1B] | 3.29 ± 0.073 |
| DAAEEEKEEEAKEESDD [RPP2B] | 3.41 ± 0.078 |
| DAGKIDKHLYHVLYKES [RPL19A] | 2.89 ± 0.083 |
| DAGVTFNKEQLNKFKKA [ECM29] | 2.36 ± 0.059 |
| DAIAVTKGHGFEGVTHR [RPL3] | 3.36 ± 0.077 |
| DAKTSYPNEVLKFNHGN [REC8] | 2.95 ± 0.065 |
| DALEMQWRYLYDTQLKV [ARP7] | 1.53 ± 0.05 |
| DANGVSLFELIVPIFQL [YJL039C/NUP192] | 2.14 ± 0.032 |
| DANLLEEGETSRPLKKV [SWI3] | 2.99 ± 0.15 |
| DASTPLRSTENGIVDQV [RPB2] | 3.47 ± 0.092 |

| Sequence | protein stability index |
| --- | --- |
| DAVEGVSECIILGQTMS [RPO31] | 1.56 ± 0.13 |
| DAYYDLELRNSVMDDIL [PRP8] | 3.09 ± 0.036 |
| DDDDYNAEKYFNNGDDD [RPC31] | 3.19 ± 0.07 |
| DDEHNPTIVGGLYYQRP [AAR2] | 2.96 ± 0.04 |
| DDIYDISLLKNRRKQSF [RPN4] | 3.1 ± 0.14 |
| DDKDCTIKISTNDDSIK [RGR1] | 2.96 ± 0.057 |
| DDLIHFTLKQWNRLTIS [COR1] | 1.33 ± 0.043 |
| DDMDIDEVNDRSDISDS [PCI8] | 3.02 ± 0.085 |
| DDTAANNGDKDHLKLVS [YIL149C/MLP2] | 3.2 ± 0.087 |
| DDVISNAGTNDNSFNEL [MCD1] | 3.44 ± 0.084 |
| DDYSNEDNEMLEDLFSY [YJR042W/NUP85] | 1.66 ± 0.073 |
| DEDIITIFKYLTDKDAF [CDC53] | 3.19 ± 0.059 |
| DEGHVLKLENLHVVSKS [SIN4] | 3.02 ± 0.13 |
| DEKEKQLAVANEIIRSL [SIR4] | 1.91 ± 0.047 |
| DEKLKTEKLKNDKSEVL [SRB8] | 3.33 ± 0.22 |
| DELCKLVTCEGSEEKAF [SRP54] | 2.25 ± 0.13 |
| DELERILKELSNLETLY [RPB4] | 3.1 ± 0.12 |
| DELILEAKERYTDRDQD [NNF1] | 3.52 ± 0.2 |
| DELSSKELVECHLYSQR [NNF1] | 2 ± 0.04 |
| DESDTISFRSNLLKNFI [SNF6] | 2.41 ± 0.079 |
| DESLIRELYKYVRKHDP [PRP28] | 3.09 ± 0.12 |
| DESSGTSRIDEEKPGLI [SMC4] | 3.08 ± 0.065 |
| DEVDAIGGRRFSEGTSA [RPT4] | 2.35 ± 0.09 |
| DFDNIEFKKIPRVKGFK [SEC65] | 3.13 ± 0.088 |
| DFNEIVQYLSGAHGNSD [POP3] | 1.28 ± 0.11 |
| DGGYNAQLAKAKTELNE [SMC2] | 1.5 ± 0.038 |
| DGKKHSVFYTILRDYGP [RPO31] | 2.87 ± 0.06 |

| Sequence | protein stability index |
| --- | --- |
| DGMYSESKLSLETLFNR [FAS2] | 3.33 ± 0.048 |
| DGRSFDQFRDVEITFGK [RRP45] | 3.21 ± 0.057 |
| DHINGSGKRKPTKAAQR [GAL11] | 3.17 ± 0.1 |
| DIDAVNGAVGKREGKTR [ISW2] | 3.4 ± 0.071 |
| DIETQLCSMLQEASQVT [MED11] | 2.44 ± 0.074 |
| DIGKEMSLRHFGHLMHY [RPN1] | 1.08 ± 0.037 |
| DIIVAIKIFELKLPADA [IRR1] | 1.83 ± 0.052 |
| DINQAKDFIENVNNRFD [BRN1] | 3.08 ± 0.056 |
| DISLKADLERFFLSIYF [YJL039C/NUP192] | 2.94 ± 0.044 |
| DITGIRDVSDDVFDTLA [GRR1] | 2.97 ± 0.067 |
| DKDSEELDSKTRKILEI [MED4] | 2.98 ± 0.064 |
| DKFFNEVNKSELYLTAE [SIR3] | 3.58 ± 0.12 |
| DKIPLNYAMTRNILHNT [SRB5] | 1.93 ± 0.035 |
| DKLKVYKQAMNETSEQL [SNF5] | 3.11 ± 0.11 |
| DKLTRVHDKIWCCRSGS [PRE3] | 2.9 ± 0.032 |
| DKNELQQMIITRLKSLL [SIR3] | 2.08 ± 0.037 |
| DKRIVISIDSWPTTHKY [DIS3] | 2.06 ± 0.087 |
| DKVTSQAVNNLIKTLST [RPP1] | 2.62 ± 0.048 |
| DLALKMGVPIYGIVAMA [FAS2] | 1.18 ± 0.078 |
| DLEKLLEMSTEDFVKLA [RPS15] | 3.28 ± 0.08 |
| DLLRSQLTSLEKDCSLR [YIL149C/MLP2] | 3.03 ± 0.042 |
| DLQRLKPLGLDRYGNRY [ITC1] | 3.05 ± 0.13 |
| DLTMGQVGERIKQTFKN [RPO21] | 3.23 ± 0.11 |
| DLTRVYKAISAQADKQD [FAS2] | 1.75 ± 0.044 |

Source: the supplement of paper PMC9732359
